Measured values from PMC6126186.

Target: exonuclease domain from the DNA repair protein WRN
Experiment: SEC-MALS; protein concentrated (10x and 20x) in a mixture of 50 mM phosphate and 1% sucrose; A280 and MALS across the elution peak

Sequence of exonuclease domain from the DNA repair protein WRN (Q14191 2-1432): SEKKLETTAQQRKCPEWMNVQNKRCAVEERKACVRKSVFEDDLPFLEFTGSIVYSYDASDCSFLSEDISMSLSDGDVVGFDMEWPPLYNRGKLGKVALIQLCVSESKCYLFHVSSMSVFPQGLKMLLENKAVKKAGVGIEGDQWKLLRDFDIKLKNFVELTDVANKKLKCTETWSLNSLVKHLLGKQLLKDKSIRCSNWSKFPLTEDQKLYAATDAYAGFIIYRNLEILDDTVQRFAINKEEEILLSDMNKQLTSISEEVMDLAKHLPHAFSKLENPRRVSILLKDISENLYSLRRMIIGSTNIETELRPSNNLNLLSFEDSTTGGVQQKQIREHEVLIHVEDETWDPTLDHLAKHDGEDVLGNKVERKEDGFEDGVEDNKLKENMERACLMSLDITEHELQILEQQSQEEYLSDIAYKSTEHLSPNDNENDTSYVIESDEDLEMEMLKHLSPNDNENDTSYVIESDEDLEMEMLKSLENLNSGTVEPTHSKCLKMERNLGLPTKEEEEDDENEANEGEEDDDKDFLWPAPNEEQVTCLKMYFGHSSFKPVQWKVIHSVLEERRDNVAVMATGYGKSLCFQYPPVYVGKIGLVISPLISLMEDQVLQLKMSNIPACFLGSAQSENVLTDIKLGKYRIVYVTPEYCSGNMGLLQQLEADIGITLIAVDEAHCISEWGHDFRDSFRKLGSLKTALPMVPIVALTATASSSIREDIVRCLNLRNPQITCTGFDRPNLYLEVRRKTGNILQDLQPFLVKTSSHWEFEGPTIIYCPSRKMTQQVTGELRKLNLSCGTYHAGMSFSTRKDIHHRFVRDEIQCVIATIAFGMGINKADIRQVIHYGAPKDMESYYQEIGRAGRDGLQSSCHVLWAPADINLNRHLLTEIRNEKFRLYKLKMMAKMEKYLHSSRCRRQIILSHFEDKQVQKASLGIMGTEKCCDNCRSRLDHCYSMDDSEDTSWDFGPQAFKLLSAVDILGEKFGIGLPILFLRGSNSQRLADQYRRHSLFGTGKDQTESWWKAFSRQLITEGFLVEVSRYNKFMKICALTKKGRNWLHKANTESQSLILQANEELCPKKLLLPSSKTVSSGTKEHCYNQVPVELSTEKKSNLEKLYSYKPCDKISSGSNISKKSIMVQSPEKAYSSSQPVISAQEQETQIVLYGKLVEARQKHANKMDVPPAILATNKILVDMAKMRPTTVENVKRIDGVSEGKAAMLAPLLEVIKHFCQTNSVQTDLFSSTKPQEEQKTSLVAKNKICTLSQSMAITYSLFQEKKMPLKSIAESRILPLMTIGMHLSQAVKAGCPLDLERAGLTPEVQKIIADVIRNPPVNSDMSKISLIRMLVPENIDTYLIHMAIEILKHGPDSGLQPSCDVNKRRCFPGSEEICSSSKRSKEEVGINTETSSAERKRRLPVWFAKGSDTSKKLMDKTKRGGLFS

stoichiometry N: 2
Substance: exonuclease domain from the DNA repair protein WRN (domain or fragment)
